From the Human Domainome abundance scans (Beltran et al. 2025)
± gives the uncertainty stated by the source.

B1: Homeobox expressed in ES cells 1, residues 110 to 165; numbered along this chain, Q9UBX0 (parent)
chain: RPRTAFTQNQIEVLENVFRVNCYPGIDIREDLAQKLNLEEDRIQIWFQNRRAKLKR
B2: RanBP-type and C3HC4-type zinc finger-containing protein 1, residues 369 to 411; numbered along this chain, Q9BYM8 (parent)
chain: YHCKTPDCKGWCFFEDDVNEFTCPVCFHVNCLLCKAIHEQMNC

Variants of: B1
Test: abundance fitness (aPCA) (normalised: wild type 0, dead -1); higher = more abundant; growth selection in yeast, the domain comes from the species named
Settings: Homo sapiens
Variant K53L has an abundance fitness of -0.067 ± 0.071.
K53M showed an abundance fitness of -0.075 ± 0.15.
In the case of K53N, the abundance fitness is reported as -0.284 ± 0.41.
Work on K53P yielded an abundance fitness of -0.345 ± 0.29.
Work on K53Q yielded an abundance fitness of 0.267 ± 0.13.
Work on K53R yielded an abundance fitness of 0.059 ± 0.086.
For K53S, the abundance fitness was -0.017 ± 0.083.
K53T showed an abundance fitness of -0.115 ± 0.14.
In the case of K53V, the abundance fitness is reported as -0.229 ± 0.19.
Work on K53W yielded an abundance fitness of -0.405 ± 0.16.
Work on K53Y yielded an abundance fitness of -0.492 ± 0.15.
With L54A the abundance fitness was -0.34 ± 0.12.
L54C showed an abundance fitness of -0.031 ± 0.11.
L54D showed an abundance fitness of -0.071 ± 0.13.
L54E gave an abundance fitness of 0.203 ± 0.085.
With L54F the abundance fitness was 0.312 ± 0.17.
With L54G the abundance fitness was 0.319 ± 0.1.
L54I gave an abundance fitness of 0.074 ± 0.08.
In the case of L54K, the abundance fitness is reported as -0.119 ± 0.14.
L54M showed an abundance fitness of -0.195 ± 0.22.
Work on L54P yielded an abundance fitness of 0.222 ± 0.19.
Work on L54Q yielded an abundance fitness of 0.01 ± 0.16.
In the case of L54R, the abundance fitness is reported as -0.596 ± 0.079.
In the case of L54V, the abundance fitness is reported as -0.082 ± 0.13.
For L54W, the abundance fitness was -0.205 ± 0.084.
Variant K55A has an abundance fitness of -0.451 ± 0.24.
For K55D, the abundance fitness was -0.419 ± 0.37.
K55E gave an abundance fitness of 0.334 ± 0.17.
K55F gave an abundance fitness of -0.349 ± 0.46.
K55G showed an abundance fitness of -0.302 ± 0.21.
Variant K55H has an abundance fitness of -0.27 ± 0.12.
Work on K55I yielded an abundance fitness of 0.143 ± 0.15.
In the case of K55L, the abundance fitness is reported as -0.583 ± 0.23.
In the case of K55M, the abundance fitness is reported as -0.181 ± 0.078.
With K55N the abundance fitness was -0.068 ± 0.31.
In the case of K55P, the abundance fitness is reported as -0.042 ± 0.19.
For K55R, the abundance fitness was -0.369 ± 0.089.
For K55S, the abundance fitness was -0.399 ± 0.12.
With K55V the abundance fitness was -0.672 ± 0.37.
For K55Y, the abundance fitness was -0.479 ± 0.35.
In the case of R56C, the abundance fitness is reported as 0.033 ± 0.1.
Variant R56D has an abundance fitness of 0.686 ± 0.31.
Work on R56G yielded an abundance fitness of 0.104 ± 0.25.
For R56V, the abundance fitness was -0.171 ± 0.27.
For R56W, the abundance fitness was 0.617 ± 0.15.

Variants of: B2
Test: as above
Settings: Homo sapiens
For YHNKTPDCKGWCFFEDDVNEFTCPVCFHVNCLLCKAIHEQMNC [C3N], the abundance fitness was -0.666 ± 0.14.
YHCKTPDCKGWCFFEDDVNGFTCPVCFHVNCLLCKAIHEQMNC [E20G] gave an abundance fitness of -0.457 ± 0.048.
For YHCKTPDCKGWCFFEDDVNEFDCPVCFHVNCLLCKAIHEQMNC [T22D], the abundance fitness was -0.343 ± 0.11.
YHCKTPDCKGWCFFEDDVNECTCPVCFHVNCLLCKAIHEQMNC [F21C] showed an abundance fitness of -0.186 ± 0.064.
YHCKTPDCKGWCVFEDDVNEFTCPVCFHVNCLLCKAIHEQMNC [F13V] gave an abundance fitness of -0.235 ± 0.094.
YHCKTPDCKGWCFFEDDVNEFTCPVCFHVNCLKCKAIHEQMNC [L33K] showed an abundance fitness of 0.138 ± 0.043.
Work on YHCKTPDCKGWYFFEDDVNEFTCPVCFHVNCLLCKAIHEQMNC [C12Y] yielded an abundance fitness of 0.04 ± 0.18.
YHCKTPDCKGWCFFEDDVNEFTCPVCFHVNCLLPKAIHEQMNC [C34P] showed an abundance fitness of -0.174 ± 0.067.
Variant YHCKTPDCKGWCFFEDDVNEFTCPVCFHVNCLLCKAIHEDMNC [Q40D] has an abundance fitness of 0.043 ± 0.08.
YHCKTPDCKGWCFFEDDVNEFTCPVCFHVNCLLCKAIHELMNC [Q40L] showed an abundance fitness of -0.452 ± 0.062.
Variant YHCKTPDCRGWCFFEDDVNEFTCPVCFHVNCLLCKAIHEQMNC [K9R] has an abundance fitness of 0.036 ± 0.041.
Work on YHCKTPDCKGWCFFEDDSNEFTCPVCFHVNCLLCKAIHEQMNC [V18S] yielded an abundance fitness of -0.055 ± 0.052.
With YHCKTPDCKGWCFFEDDVNFFTCPVCFHVNCLLCKAIHEQMNC [E20F] the abundance fitness was -0.122 ± 0.07.
In the case of YHCKTPDCKGWCFEEDDVNEFTCPVCFHVNCLLCKAIHEQMNC [F14E], the abundance fitness is reported as -0.082 ± 0.082.
With YHCKTPDCKGWCFFEDDVNEFTCPVCFHVNCLLCKAIHEQMNR [C43R] the abundance fitness was -0.323 ± 0.045.
YHCKTPDCKGWCFFEDDVNEFTCPVCFHVNCLLCRAIHEQMNC [K35R] gave an abundance fitness of -0.021 ± 0.043.
YHCKTPDCKGWCFFTDDVNEFTCPVCFHVNCLLCKAIHEQMNC [E15T] gave an abundance fitness of -0.042 ± 0.06.
Variant YHCKTPDCKGWCFFEDDVNEFFCPVCFHVNCLLCKAIHEQMNC [T22F] has an abundance fitness of -0.261 ± 0.16.
For YHCKTPDCKGWCFFEDDVFEFTCPVCFHVNCLLCKAIHEQMNC [N19F], the abundance fitness was -0.395 ± 0.44.
Work on YHCKTPDCHGWCFFEDDVNEFTCPVCFHVNCLLCKAIHEQMNC [K9H] yielded an abundance fitness of -0.259 ± 0.079.
YHCKTPDCKGWCFFEDDVNEFTCPVCFHSNCLLCKAIHEQMNC [V29S] showed an abundance fitness of -0.257 ± 0.086.
Work on YHCKTPDCKGWCFFEDDVNEFTCPVCFHVNCLLCFAIHEQMNC [K35F] yielded an abundance fitness of -0.149 ± 0.059.
Variant YHCKTPDCKGWCFFEDDVNEFGCPVCFHVNCLLCKAIHEQMNC [T22G] has an abundance fitness of -0.658 ± 0.05.
For YVCKTPDCKGWCFFEDDVNEFTCPVCFHVNCLLCKAIHEQMNC [H2V], the abundance fitness was -0.739 ± 0.071.
YHCKTPDCKGWCFFEDDVNEFQCPVCFHVNCLLCKAIHEQMNC [T22Q] showed an abundance fitness of -0.118 ± 0.085.
Variant YHCKTPDCKGWCFFEDDVNEFTCPVCFHANCLLCKAIHEQMNC [V29A] has an abundance fitness of -0.368 ± 0.046.
YHCKTPDCKGWCFFEDDVNEFTCPVCFHVNCLLCKAIHEQHNC [M41H] gave an abundance fitness of 0.043 ± 0.083.
YICKTPDCKGWCFFEDDVNEFTCPVCFHVNCLLCKAIHEQMNC [H2I] showed an abundance fitness of -0.265 ± 0.14.
With YHCKTPDCKGWCFFEDDVLEFTCPVCFHVNCLLCKAIHEQMNC [N19L] the abundance fitness was -0.081 ± 0.044.
Work on YHCKTPDCKGWCFFEDDVNEFTCPACFHVNCLLCKAIHEQMNC [V25A] yielded an abundance fitness of -0.136 ± 0.066.
YHCKTPFCKGWCFFEDDVNEFTCPVCFHVNCLLCKAIHEQMNC [D7F] showed an abundance fitness of -0.245 ± 0.087.
With YHCKTPDCKGWCFFEDDVNEFTCPVCFHVNCLLCKWIHEQMNC [A36W] the abundance fitness was -0.87 ± 0.075.
YHCKTPDCKGWCFFEDDVNEFTCPVCFHVNCLLCKAIVEQMNC [H38V] showed an abundance fitness of -0.803 ± 0.082.
In the case of YHCKTPDCKGWCFLEDDVNEFTCPVCFHVNCLLCKAIHEQMNC [F14L], the abundance fitness is reported as 0.243 ± 0.08.
In the case of YQCKTPDCKGWCFFEDDVNEFTCPVCFHVNCLLCKAIHEQMNC [H2Q], the abundance fitness is reported as 0.091 ± 0.053.
For YHCKTPDCKGWCFFEDDVNEFTCPVCFHVNDLLCKAIHEQMNC [C31D], the abundance fitness was -0.54 ± 0.083.
YHCKTPDCKGWCFFEDDVNEFTCPVCFHVNCLLCKAIHEAMNC [Q40A] gave an abundance fitness of -0.094 ± 0.043.
With YACKTPDCKGWCFFEDDVNEFTCPVCFHVNCLLCKAIHEQMNC [H2A] the abundance fitness was -0.285 ± 0.044.
With YHCKTPDCKGMCFFEDDVNEFTCPVCFHVNCLLCKAIHEQMNC [W11M] the abundance fitness was 0.191 ± 0.065.
YHCKTPDCKGWCFFEDDVNEFTCPVCFHVNCLLCKAIHEVMNC [Q40V] gave an abundance fitness of -0.32 ± 0.053.
In the case of YHCKTPDCKGWCFFEDDVNEFTCPVCFHVNCFLCKAIHEQMNC [L32F], the abundance fitness is reported as -0.407 ± 0.15.
With YHCKTPDCKGWCFFEDDVNEFTCPVCFHVACLLCKAIHEQMNC [N30A] the abundance fitness was -1.3 ± 0.14.
YHCKTPDCKGWCFFEDDVNEFTCPVCFHVCCLLCKAIHEQMNC [N30C] gave an abundance fitness of -0.777 ± 0.12.
In the case of YHCKTPDCKGWCFFEDDVNEFTCPVCFHVNCLLCKSIHEQMNC [A36S], the abundance fitness is reported as 0.01 ± 0.05.
In the case of YHCKTPDCGGWCFFEDDVNEFTCPVCFHVNCLLCKAIHEQMNC [K9G], the abundance fitness is reported as -0.042 ± 0.036.
For YHCKTPDCKGWCFFEDDVNEFSCPVCFHVNCLLCKAIHEQMNC [T22S], the abundance fitness was -0.267 ± 0.056.
YHCKTPDWKGWCFFEDDVNEFTCPVCFHVNCLLCKAIHEQMNC [C8W] gave an abundance fitness of -0.949 ± 0.13.
YHCKTPDCKGWCFFEDDVNEFTCPVCFHVNCLLCKAITEQMNC [H38T] gave an abundance fitness of -0.639 ± 0.088.
With AHCKTPDCKGWCFFEDDVNEFTCPVCFHVNCLLCKAIHEQMNC [Y1A] the abundance fitness was -0.18 ± 0.093.
Variant YHCKTPDCKGWCFFEDQVNEFTCPVCFHVNCLLCKAIHEQMNC [D17Q] has an abundance fitness of 0.142 ± 0.064.
Variant YHCKTPDCKGWCFFEDDVNEFTCPVCFKVNCLLCKAIHEQMNC [H28K] has an abundance fitness of 0.131 ± 0.054.
With YGCKTPDCKGWCFFEDDVNEFTCPVCFHVNCLLCKAIHEQMNC [H2G] the abundance fitness was -0.568 ± 0.051.
YHCKTPDCKTWCFFEDDVNEFTCPVCFHVNCLLCKAIHEQMNC [G10T] showed an abundance fitness of -0.494 ± 0.071.
Variant YHCKTPDCKGWCFFEDDVGEFTCPVCFHVNCLLCKAIHEQMNC [N19G] has an abundance fitness of -0.194 ± 0.038.
YHCKTPDCKGWCFFEDDVNEFTCPVCFHVNCLLWKAIHEQMNC [C34W] showed an abundance fitness of -1.02 ± 0.094.
Work on YHCKTPDCKGWCFFEDDVNEFTCPVCFQVNCLLCKAIHEQMNC [H28Q] yielded an abundance fitness of 0.059 ± 0.051.
In the case of YHCKTPDCKGWCFFEDDVNEFTCPVCFHVNELLCKAIHEQMNC [C31E], the abundance fitness is reported as -0.611 ± 0.057.
In the case of YHCKTPDCKGWCFFEDDVNEFTCPVCFHVNCLLCKAIHEQQNC [M41Q], the abundance fitness is reported as 0.15 ± 0.049.
Variant YHCKTPDCPGWCFFEDDVNEFTCPVCFHVNCLLCKAIHEQMNC [K9P] has an abundance fitness of 0.047 ± 0.042.
For YHCKTPDCKGWCFFEDDVNEFTCPVCFHVNCLLCKAAHEQMNC [I37A], the abundance fitness was -0.152 ± 0.043.
Variant YHCKTPDCEGWCFFEDDVNEFTCPVCFHVNCLLCKAIHEQMNC [K9E] has an abundance fitness of 0.064 ± 0.054.
For YHCCTPDCKGWCFFEDDVNEFTCPVCFHVNCLLCKAIHEQMNC [K4C], the abundance fitness was -0.201 ± 0.051.
Variant YHCKTPDCKVWCFFEDDVNEFTCPVCFHVNCLLCKAIHEQMNC [G10V] has an abundance fitness of -0.779 ± 0.081.
For YHCKRPDCKGWCFFEDDVNEFTCPVCFHVNCLLCKAIHEQMNC [T5R], the abundance fitness was -0.099 ± 0.043.
